Residue numbers refer to the chain shown, from its start. Names and notes keep the numbering of the source. Values joined by “and” are separate entries in the source; they are usually repeats but may differ in a detail not shown here. Equal values may be shown once.
B1: huNRG1(S177-Q237)(2G4)::GG::huFcSEFL2 (Pb) (Fc fusion)
chain: SHLVKCAENEKTFCVNGGECFVVEGLSIPSRYLCKCPNEFTGDRCQDVFMASFYKAEELYQGGDKTHTCPPCPAPELLGGPSVFLFPPKPKDTLMISRTPEVTCVVVDVSHEDPEVKFNWYVDGVEVHNAKTKPCEEQYGSTYRCVSVLTVLHQDWLNGKEYKCKVSNKALPAPIEKTISKAKGQPREPQVYTLPPSREEMTKNQVSLTCLVKGFYPSDIAVEWESNGQPENNYKTTPPVLDSDGSFFLYSKLTVDKSRWQQGNVFSCSVMHEALHNHYTQKSLSLSPGK
B2: huNRG1(S177-Q237)(_200E)::GG::huFcSEFL2 (Pb) (Fc fusion)
chain: B1 chain with N9K, V22M, G25D, I28N, D47N, V48Y, F49V
B3: huNRG1(S177-Q237)(v80.3)::GG::huFcSEFL2 (Pb) (Fc fusion)
chain: B1 chain with N9R, E10H, T12S, V23I, L26S, Q46E, D47K, V48D, F49V
B4: huNRG1(S177-Q237)(_FVIEDPSI)::GG::huFcSEFL2 (Pb) (Fc fusion)
chain: B1 chain with N9K, V23I, G25D, L26P, D47N, V48Y, F49V
B5: huNRG1(S177-Q237)(3A7)::GG::huFcSEFL2 (Pb) (Fc fusion)
chain: B1 chain with N9K, T12S, V23I, L26S, Y32F, D47K, F49V
B6: huNRG1(S177-Q237)(2H7)::GG::huFcSEFL2 (Pb) (Fc fusion)
chain: B1 chain with A7G, N9K, T12S, F21Y, G25D, Y32F, D47K, F49V
B7: huNRG1(S177-Q237)(3G3)::GG::huFcSEFL2 (Pb) (Fc fusion)
chain: B1 chain with A7G, N9R, V22M, V23I, G25H, Y32F, D47E, V48D
B8: huNRG1(S177-Q237)(3E6)::GG::huFcSEFL2 (Pb) (Fc fusion)
chain: B1 chain with N9K, E10H, T12S, F21Y, V23I, L26S, Y32F, D47K, V48D
B9: huNRG1(S177-Q237)(v80)::GG::huFcSEFL2 (Pb) (Fc fusion)
chain: B1 chain with N9S, E10H, T12S, V23I, L26S, D47K, V48D, F49V
B10: huNRG1(S177-Q237)(2E4)::GG::huFcSEFL2 (Pb) (Fc fusion)
chain: SHLVKCGESDKSFCVNGGECFMVKRPSNPSRYLCKCPNEFTGDRCQKVFLASFYKAEELYQGGDKTHTCPPCPAPELLGGPSVFLFPPKPKDTLMISRTPEVTCVVVDVSHEDPEVKFNWYVDGVEVHNAKTKPCEEQYGSTYRCVSVLTVLHQDWLNGKEYKCKVSNKALPAPIEKTISKAKGQPREPQVYTLPPSREEMTKNQVSLTCLVKGFYPSDIAVEWESNGQPENNYKTTPPVLDSDGSFFLYSKLTVDKSRWQQGNVFSCSVMHEALHNHYTQKSLSLSPGK
B11: huNRG1(S177-Q237)(3D6)::GG::huFcSEFL2 (Pb) (Fc fusion)
chain: B1 chain with A7G, N9S, E10D, T12S, V23I, L26S, Y32F, V48F
B12: huNRG1(S177-Q237)()200E_KDF)::GG::huFcSEFL2 (Pb) (Fc fusion)
chain: B1 chain with N9K, V22M, G25D, I28N, D47K, V48D
B13: huNRG1(S177-Q237)(2G3)::GG::huFcSEFL2 (Pb) (Fc fusion)
chain: B1 chain with A7G, N9R, E10Q, T12S, F21Y, V22M, G25D, D47K
B14: huNRG1(S177-Q237)(3G9)::GG::huFcSEFL2 (Pb) (Fc fusion)
chain: B10 chain with D10H, K24E, R25D, P26L, Y32F, V48D, L50M
B15: huNRG1(S177-Q237)(3E9)::GG::huFcSEFL2 (Pb) (Fc fusion)
chain: B1 chain with E10H, V23I, L26S, I28N, M50L
B16: huNRG1(S177-Q237)(3D8)::GG::huFcSEFL2 (Pb) (Fc fusion)
chain: B1 chain with A7G, N9K, E10D, V22M, G25D, Y32F, V48F
B17: huNRG1(S177-Q237)(3F2)::GG::huFcSEFL2 (Pb) (Fc fusion)
chain: B10 chain with D10H, V23I, K24E, R25G, K47D, V48D, L50M
B18: huNRG1(S177-Q237)(3H5)::GG::huFcSEFL2 (Pb) (Fc fusion)
chain: B10 chain with S9R, D10H, F21Y, M22V, K24E, N28I, Y32F, V48D
B19: huNRG1(S177-Q237)(3B8)::GG::huFcSEFL2 (Pb) (Fc fusion)
chain: B10 chain with S9R, K24E, P26S, N28I, K47D, V48F
B20: huNRG1(S177-Q237)(3H8)::GG::huFcSEFL2 (Pb) (Fc fusion)
chain: B1 chain with A7G, N9K, E10H, T12S, F21Y, V22M, L26S, D47E, V48D
B21: huNRG1(S177-Q237)(wt)::GG::huFcSEFL2 (Pb) (Fc fusion)
chain: B1 chain with N9K, V22M, E24K, G25D, I28N, D47N, V48Y, F49V
B22: huNRG1(S177-Q237)(2F2)::GG::huFcSEFL2 (Pb) (Fc fusion)
chain: B1 chain with N9S, F21Y, V22M, V23I, G25H, L26P, I28N, Y32F, D47N
B23: huNRG1(S177-F229)(NRGE1C)::1KmodT482V, M493L)::huFcSEFL2 (Pb) (Fc fusion)
chain: SHLVKCGEKHKSFCVNGGECFMIEGPSNPSRYLCKCPNEFTGDRCQEDFMASFGSGSATGGSGSVASSGSGSATHLDKTHTCPPCPAPELLGGPSVFLFPPKPKDTLMISRTPEVTCVVVDVSHEDPEVKFNWYVDGVEVHNAKTKPCEEQYGSTYRCVSVLTVLHQDWLNGKEYKCKVSNKALPAPIEKTISKAKGQPREPQVYTLPPSREEMTKNQVSLTCLVKGFYPSDIAVEWESNGQPENNYKTTPPVLDSDGSFFLYSKLTVDKSRWQQGNVFSCSVMHEALHNHYTQKSLSLSPGK

molecular target: ErbB4 on neonatal rat cardiomyocytes (rat) (UniProt Q62956); experiment: cell-based or functional assay
Sequence (Q62956 26-1308): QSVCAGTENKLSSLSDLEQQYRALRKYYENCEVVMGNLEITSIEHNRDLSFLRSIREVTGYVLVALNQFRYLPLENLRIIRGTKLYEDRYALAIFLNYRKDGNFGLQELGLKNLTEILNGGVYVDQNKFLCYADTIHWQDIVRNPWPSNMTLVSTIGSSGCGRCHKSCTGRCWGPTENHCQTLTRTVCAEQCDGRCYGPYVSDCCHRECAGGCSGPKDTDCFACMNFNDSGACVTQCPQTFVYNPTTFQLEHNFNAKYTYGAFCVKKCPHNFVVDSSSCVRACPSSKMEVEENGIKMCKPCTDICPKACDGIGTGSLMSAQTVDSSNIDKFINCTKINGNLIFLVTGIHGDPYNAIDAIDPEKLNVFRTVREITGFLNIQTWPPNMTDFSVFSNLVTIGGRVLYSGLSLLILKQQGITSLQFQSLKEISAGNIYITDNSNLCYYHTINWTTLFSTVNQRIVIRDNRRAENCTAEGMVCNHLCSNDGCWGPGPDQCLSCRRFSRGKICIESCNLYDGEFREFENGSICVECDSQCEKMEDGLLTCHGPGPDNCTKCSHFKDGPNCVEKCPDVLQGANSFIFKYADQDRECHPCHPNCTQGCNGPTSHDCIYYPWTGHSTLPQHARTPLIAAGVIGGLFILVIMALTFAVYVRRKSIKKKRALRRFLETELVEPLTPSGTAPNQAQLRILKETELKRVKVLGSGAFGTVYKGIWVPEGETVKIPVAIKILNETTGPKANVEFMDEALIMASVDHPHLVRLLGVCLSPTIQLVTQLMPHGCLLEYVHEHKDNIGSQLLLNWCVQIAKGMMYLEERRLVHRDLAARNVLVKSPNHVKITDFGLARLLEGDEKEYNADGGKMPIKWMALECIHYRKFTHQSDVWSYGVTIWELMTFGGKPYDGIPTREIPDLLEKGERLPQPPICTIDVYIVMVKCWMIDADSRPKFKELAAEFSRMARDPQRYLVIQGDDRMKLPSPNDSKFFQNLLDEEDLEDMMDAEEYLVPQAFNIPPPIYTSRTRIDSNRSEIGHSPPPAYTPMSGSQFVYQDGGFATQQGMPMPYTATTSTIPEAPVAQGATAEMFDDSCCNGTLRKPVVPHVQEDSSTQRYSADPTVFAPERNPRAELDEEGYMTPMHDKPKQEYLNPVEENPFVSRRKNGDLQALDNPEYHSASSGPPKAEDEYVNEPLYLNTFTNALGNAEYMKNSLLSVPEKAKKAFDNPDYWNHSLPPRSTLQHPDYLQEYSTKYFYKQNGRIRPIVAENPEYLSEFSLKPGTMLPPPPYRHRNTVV

Binder	CM % Agonism AVG [%]	Cardiomyocyte (CM) (ErbB4) Avg EC50	Selectivity SC/CM
B1	< 50	2.42 nM	414
B2	–	0.452 nM	11
B3	–	33.6 nM	89
B4	–	0.177 nM	24
B5	< 50	0.366 nM	127
B6	< 50	0.3 nM	368
B7	70	1.84 nM	> 5400
B8	–	0.35 nM	> 10000
B9	–	0.998 nM	7
B10	–	0.429 nM	143
B11	< 50	2.6 nM	> 3800
B12	–	2 nM	60
B13	–	0.208 nM	292
B14	–	0.581 nM	> 10000
B15	70	2.68 nM	> 8500
B16	< 50	0.51 nM	> 5800
B17	70	0.738 nM	> 10000
B18	–	1.27 nM	> 7800
B19	< 50	1.4 nM	2150
B20	–	0.276 nM	> 10000
B21	–	0.275 nM and 0.6 nM	0.4 and 0.3
B22	–	0.244 nM	826
B23	75.8	0.4 nM	> 10000

molecular target: ErbB3 on rat Schwann cells (rat) (UniProt Q62799); experiment: cell-based or functional assay
Sequence (Q62799 20-1339): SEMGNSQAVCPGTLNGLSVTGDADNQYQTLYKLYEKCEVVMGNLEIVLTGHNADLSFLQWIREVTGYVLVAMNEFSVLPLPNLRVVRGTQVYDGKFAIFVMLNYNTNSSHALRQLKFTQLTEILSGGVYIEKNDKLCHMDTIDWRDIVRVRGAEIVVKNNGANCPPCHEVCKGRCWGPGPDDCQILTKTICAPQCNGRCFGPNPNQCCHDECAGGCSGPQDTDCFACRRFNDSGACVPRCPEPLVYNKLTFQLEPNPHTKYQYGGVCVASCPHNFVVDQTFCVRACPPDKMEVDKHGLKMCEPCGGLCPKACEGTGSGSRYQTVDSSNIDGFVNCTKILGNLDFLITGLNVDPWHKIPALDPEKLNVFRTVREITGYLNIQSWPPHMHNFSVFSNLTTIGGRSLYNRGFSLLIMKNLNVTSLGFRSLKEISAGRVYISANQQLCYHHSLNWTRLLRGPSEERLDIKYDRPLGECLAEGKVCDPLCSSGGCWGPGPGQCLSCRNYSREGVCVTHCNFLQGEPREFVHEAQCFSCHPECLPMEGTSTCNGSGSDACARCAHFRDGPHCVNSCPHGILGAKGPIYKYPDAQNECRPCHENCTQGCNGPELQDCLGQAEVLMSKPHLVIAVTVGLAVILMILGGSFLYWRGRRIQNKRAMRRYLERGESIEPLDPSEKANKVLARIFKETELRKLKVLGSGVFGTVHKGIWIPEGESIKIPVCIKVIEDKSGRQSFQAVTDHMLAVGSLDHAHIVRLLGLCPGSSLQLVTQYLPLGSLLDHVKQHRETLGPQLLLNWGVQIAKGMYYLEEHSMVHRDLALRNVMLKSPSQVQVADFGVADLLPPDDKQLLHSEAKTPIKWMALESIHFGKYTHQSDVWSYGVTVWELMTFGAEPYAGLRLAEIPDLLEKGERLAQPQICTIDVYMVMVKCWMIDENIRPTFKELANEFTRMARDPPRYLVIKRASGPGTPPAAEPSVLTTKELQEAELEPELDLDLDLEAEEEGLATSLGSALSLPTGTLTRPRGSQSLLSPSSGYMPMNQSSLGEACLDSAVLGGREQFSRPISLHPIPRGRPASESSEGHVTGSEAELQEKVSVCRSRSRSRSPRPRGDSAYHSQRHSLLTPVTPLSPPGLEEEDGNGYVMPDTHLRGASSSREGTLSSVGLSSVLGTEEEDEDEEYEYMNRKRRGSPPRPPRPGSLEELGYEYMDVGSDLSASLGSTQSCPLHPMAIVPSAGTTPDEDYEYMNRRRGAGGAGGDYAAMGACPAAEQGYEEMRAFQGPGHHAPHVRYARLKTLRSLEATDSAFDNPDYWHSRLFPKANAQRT

Binder	Schwann cells (SC) (ErbB3) Avg EC50
B1	1000 nM
B2	4.82 nM
B3	3000 nM
B4	4.27 nM
B5	46.5 nM
B6	110 nM
B7	> 10000 nM
B8	> 10000 nM
B9	6.65 nM
B10	61.5 nM
B11	> 10000 nM
B12	121 nM
B13	60.8 nM
B14	> 10000 nM
B15	> 3000 nM
B16	> 3000 nM
B17	> 10000 nM
B18	> 10000 nM
B19	3000 nM
B20	> 10000 nM
B21	0.112 nM and 0.15 nM
B22	202 nM
B23	> 10000 nM
